According to PMC8113879, “Molecular properties of human guanylate cyclase–activating protein 2 (GCAP2) and its retinal dystrophy–associated variant G157R” (The Journal of Biological Chemistry, 2021):
Residue numbers refer to the chain shown, from its start. In names and notes the source's numbering stands.

B1: nonmyristoylated human guanylate cyclase-activating protein 2 (natural protein, UniProt Q9UMX6 1-200, looked up)
chain: MGQEFSWEEAEAAGEIDVAELQEWYKKFVMECPSGTLFMHEFKRFFKVTDDEEASQYVEGMFRAFDKNGDNTIDFLEYVAALNLVLRGTLEHKLKWTFKIYDKDGNGCIDRLELLNIVEGIYQLKKACRRELQTEQGQLLTPEEVVDRIFLLVDENGDGQLSLNEFVEGARRDKWVMKMLQMDMNPSSWLAQQRRKSAMF
notes: cDNA cloned into pET-11a(+) with NdeI and NheI; No tag is mentioned; also called nmGCAP2; nonmyristoylated GCAP2
B2: myristoylated human guanylate cyclase-activating protein 2 (natural protein, UniProt Q9UMX6 1-200, looked up)
chain: B1 chain
modifications: myristic acid covalently bound to the N-terminal Gly
notes: cDNA cloned into pET-11a(+) with NdeI and NheI; Myristoylation was confirmed by MALDI-TOF (difference of 212.2 Da to nmGCAP2); Surmised: the first methionine is removed so that Gly2 is the myristoylated N-terminus; also called mGCAP2; myristoylated GCAP2
B3: myristoylated human GCAP2 G157R variant (natural protein, UniProt Q9UMX6 1-200, looked up)
chain: B1 chain with G157R
modifications: myristic acid covalently bound to the N-terminal Gly
notes: The variant occurs in patients (Japanese families with retinitis pigmentosa); also called G157R GCAP2; IRD-associated G157R variant

Assays:
GCAP2 (Bos taurus) = GCAP2 (Bos taurus) (UniProt P51177); assay: sedimentation equilibrium; details: cited from earlier work
[1] = biological target: the molecule itself; assay: MALDI-TOF MS; 1.0 mg/ml protein in 20 mM Tris HCl pH 7.5, 150 mM KCl, 1 mM DTT, desalted by ZipTip C4, sinapinic acid matrix; dimer peaks beside the monomer peak
[2] = biological target: the molecule itself; assay: SEC; analytical SEC, Superose 12 10/300GL, 20 mM Tris HCl pH 7.5, 150 mM KCl, 1 mM DTT, 1 mM Mg2+ + 500 uM Ca2+, 25 C; ~40 uM protein or 5-80 uM for the titration; apparent KD from a hyperbolic fit of apparent mass against concentration; monomer to dimer
[3] = biological target: the molecule itself; assay: SEC; analytical SEC, Superose 12 10/300GL, 20 mM Tris HCl pH 7.5, 150 mM KCl, 1 mM DTT, 500 uM EGTA + 1 mM Mg2+ (no Ca2+), 25 C; ~40 uM protein or 5-80 uM for the titration; apparent KD from a hyperbolic fit of apparent mass against concentration; monomer to dimer

Chain of GCAP2 (Bos taurus) (P51177 2-204): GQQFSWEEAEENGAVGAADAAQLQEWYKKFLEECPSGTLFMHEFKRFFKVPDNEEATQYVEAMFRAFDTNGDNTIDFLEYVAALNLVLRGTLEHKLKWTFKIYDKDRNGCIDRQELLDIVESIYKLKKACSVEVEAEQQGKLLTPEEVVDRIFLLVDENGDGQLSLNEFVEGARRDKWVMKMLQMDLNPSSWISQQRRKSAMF

Molecule	Kd (GCAP2 (Bos taurus)) [µM]	stoichiometry N [1]	Kd [2] [µM]	Kd [3] [nM]
GCAP2 (from UniProt P51177)	52	–	–	–
B1	–	2	–	–
B2	–	2	55.4	< 1000
B3	–	2	–	–
